# Measurements taken from article PMC7855293 (Nature structural & molecular biology, 2020).
# Where two headings read alike, the source gives them in different places.
# Columns and labels:
# Experiment in all cases: cryo-EM structure
# [1] = molecular target: LC8 (RSP22) (Chlamydomonas reinhardtii)
# [2] = molecular target: RSP16 (Chlamydomonas reinhardtii)
# [3] = molecular target: FAP385 (Chlamydomonas reinhardtii)
# [4] = molecular target: the molecule itself
# [5] = molecular target: the molecule itself; remark: listed apart in the source
molecule,measurement,setting,value
LC8 (RSP22) (natural protein),stoichiometry N,[1],2
RSP16 (natural protein),stoichiometry N,[2],2
FAP385 (natural protein),stoichiometry N,[3],2
"p28 (natural protein, Chlamydomonas reinhardtii, UniProt Q39604 1-253, looked up) MIPPLSSLVRYDNPVLVSTSKDKGKGAKGTPGKKGALPPVEQKPGLTQTEDILNSILPPREWTEDGQLWVQYVSSTPATRLDVINLQEKLDQQLQQRQARETGICPIREELYAQTFDELIRQVTINCAERGLLLLRVRDEMRMTIAAYQTLYESAVAFGIRKALQTEQGKSEMESRITQLEGDVKDLERQVQEWKFKCEAIEKRESERREVEAKKHKDEVAYLENYAKQLKQQLETFLVPAKKGAPGAPAAAT",stoichiometry N,[4],2
"RSP9 (natural protein, Chlamydomonas reinhardtii, UniProt Q27YU5 1-269, looked up) MVQLEPNITLVLKHLASCGAVVSAEQQAALDHSIPIKRIEAGLRSLTLWGRLTTLNGKDYLVAEGYNVASSKEGAAVYETKYFYSQDGARWSDLQPVDSETATRCARIKGMLSGDPAKNYELEEKDPNAPEPSPEAEEEVKPLVFQIPELAVLRCRVDAIATATSVIPTDSTILNAASQVVPNRLFAGAAYPEKLESYQHRFSLPGSGVTLSQDLRGTWAVQYDAFKGVAQVRSLLFPGYFFYYAANELTWGSLYVGDGLRNNDLIFML",stoichiometry N,[5],2
"DRC4 (natural protein, Chlamydomonas reinhardtii, UniProt Q7XJ96 1-471, looked up) MAPKKKGTKKESKKDAVATGDIEGASVEELNQKIGTLEKEKNKEEEYRNYMQLERDKINAFWEITKKDLEDRRAELRNKDREMEEMEERHQVEIKVYKQKVKHLLYEHQNNITTLKSDGELALKLQQDEYRKREGDLGKDKRNLKLELKEQELAHQDIIRQLKLEHAKEITKLRQEFEQQAKDLQSKYEKKMKMLRDDMELRRKQEIHEIEERKNTHINELMKKHERAFAEIKNYYNDITHNNLDLIKTLKEDVAEMKRREAANEKLMYEIAQDNKKLSEPLSRALKEVELLRQQLANYDKDKLSLAQTKARLLNAERQIKNLEWENEVLSQRFSKVQTERDELYGKFEASIYDVQQKTGLKSALLEKKVEALGEALEMKEAQLAEVLTAANLDPGTLAAINQRLEEVLDNKNQIIKALQYDVAKVSKAHNDLIRVYEAKLTEFGIPVDELGFRPLVTNTSTGPAGLVVGA",stoichiometry N,[4],2
